Experimental data as given in the supplement of paper PMC9170038.

Test system: MS2 coat protein
Assay: apparent KD of MS2 coat protein; designed switch direction (-1 OFF switch, 1 ON switch): 1; higher = weaker reporter binding
Outline: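 Normalised cluster fluorescence was curve-fitted, and each design's median over clusters is its apparent KD. Before this, SNAP-549-labelled MS2 coat protein was titrated from 0.7 or 1.5 nM, doubling to 3 µM, over RNA switches transcribed on Illumina chips by stalled E. coli RNA polymerase. Titrations had no input, 200 uM small-molecule ligand, or an oligonucleotide input, and steps lasted 0.8–1.5 h (lowest) to 10–20 min (highest).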

[1] = input ligand: microRNA oligo, concentration not stated
[2] = Eterna round: R95, input ligand: FMN 200 uM
[3] = Eterna round: R95, input ligand: microRNA oligo, concentration not stated
[4] = Eterna round: R95, input ligand: none

Sequence: ACUCUACAUGAGGAUCACCCAUGUUGAGCCCAUCAAGGAUAUGGGUCUUAAUCGCGGGUGCCAGAAGGUGAUGGUU [Xesove] (Eterna round: R96, puzzle: Same State 1)
- apparent KD of MS2 coat protein (input ligand: FMN 200 uM): 313 nM
- apparent KD of MS2 coat protein [1]: 46.8 nM
- apparent KD of MS2 coat protein (input ligand: none): 94.3 nM

Sequence: ACUUAGUACAAUUUAGAUCUACAUGAGGAUCACCCAUGUACUGAGGAUAUCAGCUCGAAUAGAGCUGAGAAGGCAGUAGUACUA [SSNG3/9-A1] (Eterna round: R96, puzzle: Same State NG 3)
- apparent KD of MS2 coat protein (input ligand: FMN 200 uM): 47.4 nM
- apparent KD of MS2 coat protein [1]: 42.6 nM
- apparent KD of MS2 coat protein (input ligand: none): 50.2 nM

Sequence: ACUUAGUACAAUUUAGAUCUACAUGAGGAUCACCCAUGUACUGAGGAUAUCAGCUCGUUUAGAGCUGAGAAGGCAGAAGUACUU [SSNG3/8-A3] (Eterna round: R96, puzzle: Same State NG 3)
- apparent KD of MS2 coat protein (input ligand: FMN 200 uM): 54.7 nM
- apparent KD of MS2 coat protein [1]: 234 nM
- apparent KD of MS2 coat protein (input ligand: none): 207 nM

Sequence: ACUUGCGGCACAGGAUAUGGGUGCCUGUACAUGAGGAUCACCCAUGUUAAGGGACGGAUUACGAACCAGAAGGGUGAGGCGGGC [Aqube] (Eterna round: R96, puzzle: Same State NG 2)
- apparent KD of MS2 coat protein (input ligand: FMN 200 uM): 1350 nM
- apparent KD of MS2 coat protein [1]: 296 nM
- apparent KD of MS2 coat protein (input ligand: none): 300 nM

Sequence: ACUUGCUUUUUGCUCAUUUUAUGUCCGAAACAUGAGGAUCACCCAUGUGUAGAUUAUGUGUUGUUUUUGAUACGUGA [JR_SHM208A_Sub067] (puzzle: Sensor for hsa-mir-208a)
- apparent KD of MS2 coat protein [2]: 24.6 nM
- apparent KD of MS2 coat protein [3]: 20.7 nM
- apparent KD of MS2 coat protein [4]: 26.3 nM

Sequence: AGAGGAGGCGCAGGAUAUACGACGGAGGACGUGGUAGAAGGGUGCAUGCGAUGACAUGAGGAUCACCCAUGUACCGCGCGACGA [AK SSNG1-V2-16] (Eterna round: R96, puzzle: Same State NG 1)
- apparent KD of MS2 coat protein (input ligand: FMN 200 uM): 337 nM
- apparent KD of MS2 coat protein [1]: 14.2 nM
- apparent KD of MS2 coat protein (input ligand: none): 78.9 nM

Sequence: AGAUCAUGACGAGGAUAUGGAACAUGAGGAUCACCCAUGUAUGUUCCAUAACGCGAACGACGAAUCCAGAAGGCGUCGUGAUCA [Mat - Same State NG 2 - JL mod - D42] (Eterna round: R96, puzzle: Same State NG 2)
- apparent KD of MS2 coat protein (input ligand: FMN 200 uM): 5.24 nM
- apparent KD of MS2 coat protein [1]: 21.6 nM
- apparent KD of MS2 coat protein (input ligand: none): 26.3 nM

Sequence: AGAUCAUGACGAGGAUAUGGUACAUGAGGAUCACCCAUGUAUGUAUCAUAACGCGAAUGACGAAACCAGAAGGCGUCGUGAUCA [Mat - Same State NG 2 - JL mod - D43] (Eterna round: R96, puzzle: Same State NG 2)
- apparent KD of MS2 coat protein (input ligand: FMN 200 uM): 8.74 nM
- apparent KD of MS2 coat protein [1]: 11.9 nM
- apparent KD of MS2 coat protein (input ligand: none): 15.8 nM

Sequence: AGAUGUUAAUCAGGAUAUGGGCACAUGAGGAUCACCCAUGUAUUUUCGAUGCUAUGUGGAGACGUCUAGAAGGGAUGGCUAACA [SameState NG2 #86] (Eterna round: R96, puzzle: Same State NG 2)
- apparent KD of MS2 coat protein (input ligand: FMN 200 uM): 165 nM
- apparent KD of MS2 coat protein [1]: 126 nM
- apparent KD of MS2 coat protein (input ligand: none): 185 nM

Sequence: AGAUGUUAAUCAGGAUAUGGGCCCGUGAGGAUCACCCACGGAAAGUAGGUCCAACAGGGCCCAGUCUAGAAGGGAUGGCUAACA [malcolm 80 ssNG2 F5+F7.2] (Eterna round: R96, puzzle: Same State NG 2)
- apparent KD of MS2 coat protein (input ligand: FMN 200 uM): 112 nM
- apparent KD of MS2 coat protein [1]: 19.8 nM
- apparent KD of MS2 coat protein (input ligand: none): 84 nM

Sequence: AGCCGAAGCGCAGGAUAUACAUGCACACAUGAGGAUCACCCAUGUGGCAACACGUGGUAGUGAUUGUAGAAGGGUGCUCGGCGC [Omei SS(NG)2 Cv16] (Eterna round: R96, puzzle: Same State NG 2)
- apparent KD of MS2 coat protein (input ligand: FMN 200 uM): 60.1 nM
- apparent KD of MS2 coat protein [1]: 34.4 nM
- apparent KD of MS2 coat protein (input ligand: none): 51 nM

Sequence: AGCCUGAGUCGAGGAUAUUAUGGAUCAAUUAAUACAUGAGGAUCACCCAUGUAAUUAAUUUAACAUGAGAAGGCGACUCAGGCA [SSNG2/10-A1] (Eterna round: R96, puzzle: Same State NG 2)
- apparent KD of MS2 coat protein (input ligand: FMN 200 uM): 7.72 nM
- apparent KD of MS2 coat protein [1]: 5.43 nM
- apparent KD of MS2 coat protein (input ligand: none): 8.66 nM

Sequence: AGCGAGAUAGGCAAGGAUAUGCUGGGUUUCACAUGAGGAUCACCCAUGUCAUAGGUAAUGUCCGAGCAGAAGGUGCAUUCUCUUU [ak bound state multiloop solution] (puzzle: Same State 2)
- apparent KD of MS2 coat protein [3]: 172 nM

Sequence: AGCUAUCGAAAACGAUAGCAAAGGCAUGUACAUGAGGAUCACCCAUGUCAUGUACAAGCUUUUUGCUCGUCUUAAAA [Zipper 23 - 3] (Eterna round: R96, puzzle: Sensor for hsa-mir-208a)
- apparent KD of MS2 coat protein (input ligand: FMN 200 uM): 660 nM
- apparent KD of MS2 coat protein [1]: 14.1 nM
- apparent KD of MS2 coat protein (input ligand: none): 440 nM

Sequence: AGCUAUCGAAAACGAUAGCAAAGGCAUGUACAUGAGGAUCACCCAUGUCAUGUACAAGCUUUUUGCUCGUCUUAAAA [Zipper 23 - 3] (puzzle: Sensor for hsa-mir-208a)
- apparent KD of MS2 coat protein [2]: 799 nM
- apparent KD of MS2 coat protein [3]: 15.9 nM
- apparent KD of MS2 coat protein [4]: 983 nM

Sequence: AGCUAUUACGAAGGAUAUUGUGACAUGAGGAUCACCCAUGUUUUCAUGAUUUAUUGUGAUCACGUCGAGAAGGUUGUACUAACA [SameState NG2 #29] (Eterna round: R96, puzzle: Same State NG 2)
- apparent KD of MS2 coat protein (input ligand: FMN 200 uM): 59.2 nM
- apparent KD of MS2 coat protein [1]: 50.8 nM
- apparent KD of MS2 coat protein (input ligand: none): 51.8 nM

Sequence: AGGAAGGAGACUGAGGAUAUCGUAAGGAGGACAUGAGGAUCACCCAUGUGUAUAGGAUUGGAGGACGAGAAGGCAGAGGAGUGGG [JR_SS2_Sub048] (puzzle: Same State 2)
- apparent KD of MS2 coat protein [2]: 29.7 nM
- apparent KD of MS2 coat protein [3]: 19.7 nM
- apparent KD of MS2 coat protein [4]: 26.5 nM

Sequence: AGGCAAGCUUUUUGCUGGUAUGGAGGAUAACAUGAGGAUCACCCAUGUAUUGGAGGUGUUGAAGAUUUGAGAAAGAA [JR_SHM208A_Sub005] (puzzle: Sensor for hsa-mir-208a)
- apparent KD of MS2 coat protein [2]: 118 nM
- apparent KD of MS2 coat protein [3]: 149 nM
- apparent KD of MS2 coat protein [4]: 139 nM

Sequence: AGGCUCAGACUAGGAUAUAUGUGGUCACAUGAGGAUCACCCAUGUCUCGAGCUUCGGCUCGAGGCAUAGAAGGAGUCUGAGCCA [SSNG2/5-D1] (Eterna round: R96, puzzle: Same State NG 2)
- apparent KD of MS2 coat protein (input ligand: FMN 200 uM): 459 nM
- apparent KD of MS2 coat protein [1]: 14 nM
- apparent KD of MS2 coat protein (input ligand: none): 713 nM

Sequence: AGGCUGAGUCGAGGAUAUGAUCUUCAUAUAAUAACAUGAGGAUCACCCAUGUAUAAUUACAUGGAUCAGAAGGCGACUCAGCCA [SSNG2/13-B1] (Eterna round: R96, puzzle: Same State NG 2)
- apparent KD of MS2 coat protein (input ligand: FMN 200 uM): 35.4 nM
- apparent KD of MS2 coat protein [1]: 414 nM
- apparent KD of MS2 coat protein (input ligand: none): 584 nM

Sequence: AGGCUGAGUCGAGGAUAUUAUGGAUCCUCUAAUACAUGAGGAUCACCCAUGUAAUUAAUUAUACAUGAGAAGGUGACUCAGCCA [SSNG2/12-B3] (Eterna round: R96, puzzle: Same State NG 2)
- apparent KD of MS2 coat protein (input ligand: FMN 200 uM): 612 nM
- apparent KD of MS2 coat protein [1]: 129 nM
- apparent KD of MS2 coat protein (input ligand: none): 280 nM

Sequence: AGGGAGGAUGCAGGAUAUAUAAGACAUGAGGAUCACCCAUGUACCUCGUGGAGAAGAAAGGAGAGAUAGAAGGGUAGUGAGGAA [Default title] (Eterna round: R96, puzzle: Same State NG 2)
- apparent KD of MS2 coat protein (input ligand: FMN 200 uM): 285 nM
- apparent KD of MS2 coat protein [1]: 200 nM
- apparent KD of MS2 coat protein (input ligand: none): 258 nM

Sequence: AGGGCCGCGGCACAGGAUAUGCACAGGUUCACAUGAGGAUCACCCAUGUGCUCUAGAUAGCUUGAGCAGAAGGGUGUCAUGGUAA [Beadi] (puzzle: Same State 2)
- apparent KD of MS2 coat protein [2]: 16.3 nM
- apparent KD of MS2 coat protein [3]: 18.2 nM
- apparent KD of MS2 coat protein [4]: 27.9 nM
